Laboratory results reported in paper PMC8100141.

Experiments:
[1] = molecular target: DENV3 NS5 wild type (Dengue virus serotype 3) (UniProt Q5UB51); assay: fluorescence titration; details: all adenosines are 1,N6-ethenoadenosine; Fluorescence: 50 mM Tris-HCl pH 7.5, 100 mM NaCl, 1 mM MgCl2, 1 mM DTT, 10% glycerol; EMSA: 20 mM Tris pH 7.4, 150 mM NaCl, 2 mM MgCl2, 5% glycerol, room …
[2] = molecular target: DENV3 NS5 wild type (Dengue virus serotype 3) (UniProt Q5UB51); assay: fluorescence competition; details: Fluorescence: 50 mM Tris-HCl pH 7.5, 100 mM NaCl, 1 mM MgCl2, 1 mM DTT, 10% glycerol; EMSA: 20 mM Tris pH 7.4, 150 mM NaCl, 2 mM MgCl2, 5% glycerol, room …

Sequence of DENV3 NS5 wild type (Dengue virus serotype 3) (Q5UB51 2491-3390): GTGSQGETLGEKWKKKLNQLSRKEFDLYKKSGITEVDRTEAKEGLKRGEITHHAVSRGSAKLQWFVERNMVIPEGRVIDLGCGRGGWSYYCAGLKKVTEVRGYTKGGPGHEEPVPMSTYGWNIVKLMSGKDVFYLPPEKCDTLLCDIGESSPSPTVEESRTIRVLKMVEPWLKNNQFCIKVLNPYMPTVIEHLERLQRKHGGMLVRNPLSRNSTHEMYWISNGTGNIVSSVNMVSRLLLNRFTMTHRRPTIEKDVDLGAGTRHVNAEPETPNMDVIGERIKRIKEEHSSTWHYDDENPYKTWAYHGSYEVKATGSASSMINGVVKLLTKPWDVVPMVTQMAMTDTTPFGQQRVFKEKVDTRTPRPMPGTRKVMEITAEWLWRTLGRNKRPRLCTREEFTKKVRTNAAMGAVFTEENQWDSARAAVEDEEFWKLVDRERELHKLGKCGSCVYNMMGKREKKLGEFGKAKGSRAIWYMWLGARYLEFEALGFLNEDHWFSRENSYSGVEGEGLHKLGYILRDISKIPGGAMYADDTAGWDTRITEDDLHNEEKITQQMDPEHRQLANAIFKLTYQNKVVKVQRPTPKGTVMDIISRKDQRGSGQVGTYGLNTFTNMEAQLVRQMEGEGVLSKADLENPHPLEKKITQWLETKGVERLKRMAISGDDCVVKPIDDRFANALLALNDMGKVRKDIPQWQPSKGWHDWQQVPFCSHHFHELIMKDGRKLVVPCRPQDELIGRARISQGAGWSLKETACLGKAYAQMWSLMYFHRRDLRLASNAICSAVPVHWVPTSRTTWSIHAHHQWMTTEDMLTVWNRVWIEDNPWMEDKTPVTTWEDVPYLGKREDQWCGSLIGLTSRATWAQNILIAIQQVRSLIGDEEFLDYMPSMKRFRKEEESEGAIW

Row | Substance | Ka [1] [M⁻¹] | Ka [2] [M⁻¹]
1 | AAAAAAAAAAAAAAAAAAAA [εA(pεA)19] | 2.1e+06 | 
2 | tRNA-SLADENV |  | 4.8e+06
